Data published in patent US20040266684.

Biological target: T1, purified human Lys77-Plasminogen, P00747
T1 chain: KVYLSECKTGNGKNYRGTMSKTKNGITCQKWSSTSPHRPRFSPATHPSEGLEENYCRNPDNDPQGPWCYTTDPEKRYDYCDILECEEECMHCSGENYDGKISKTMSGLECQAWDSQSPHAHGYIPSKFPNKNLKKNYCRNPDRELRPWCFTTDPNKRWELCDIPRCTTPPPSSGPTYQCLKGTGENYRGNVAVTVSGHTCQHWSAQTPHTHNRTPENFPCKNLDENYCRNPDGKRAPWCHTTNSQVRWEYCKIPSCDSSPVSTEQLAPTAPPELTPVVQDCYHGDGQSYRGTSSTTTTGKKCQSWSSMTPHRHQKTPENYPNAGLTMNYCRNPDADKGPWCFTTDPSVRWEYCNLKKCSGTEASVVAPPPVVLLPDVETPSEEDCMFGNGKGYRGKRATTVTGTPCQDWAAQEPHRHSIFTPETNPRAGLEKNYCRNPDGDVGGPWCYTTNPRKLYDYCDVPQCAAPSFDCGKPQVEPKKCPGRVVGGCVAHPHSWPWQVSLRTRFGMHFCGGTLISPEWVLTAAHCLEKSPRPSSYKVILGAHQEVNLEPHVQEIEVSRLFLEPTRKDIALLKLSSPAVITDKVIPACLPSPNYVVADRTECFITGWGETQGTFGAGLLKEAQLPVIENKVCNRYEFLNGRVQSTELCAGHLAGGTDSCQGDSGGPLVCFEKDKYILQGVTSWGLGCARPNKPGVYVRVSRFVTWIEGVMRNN

B1: thiolated streptokinase (protein)
chain: IAGPEWLLDRPSVNNSQLVVSVAGTVEGTNQDISLKFFEIDLTSRPAHGGKTEQGLSPKSKPFATDSGAMSHKLEKADLLKAIQEQLIANVHSNDDYFEVIDFASDATITDRNGKVYFADKDGSVTLPTQPVQEFLLSGHVRVRPYKEKPIQNQAKSVDVEYTVQFTPLNPDDDFRPGLKDTKLLKTLAIGDTITSQELLAQAQSILNKNHPGYTIYERDSSIVTHDNDIFRTILPMDQEFTYRVKNREQAYRINKKSGLNEEINNTDLISEKYYVLKKGEKPYDPFDRSHLKLFTIKYVDVDTNELLKSEQLLTASERNLDFRDLYDPRDKAKLLYNNLDAFGIMDYTLTGKVEDNHDDTNRIITVYMGKRPEGENASYHLAYDKDRYTEEEREVYSYLRYTGTPIPDNPNDK
B1 was tested, and the “plasmin generated in the plasminogen activation assay (S-2251 substrate units)” value was “thiolated SK (1 nM) generated plasmin at a nearly linear of 4225 SU/ml”.
